Reference: US20210380699A1 (published 2021)
Substitutions are numbered along the chain they refer to.

Assays:
[1] = molecular target: T1, Human PD-L1 His (human PD-L1 ECD with C-terminal His tag) (human, UniProt Q9NZQ7 19-238); assay: SPR 25C, antibody captured, PD-L1 analyte
T1 construct: Biotinylated in ELISA and AlphaScreen assays; also called hPD-L1-his; biotinylated PD-L1 his

[2] = molecular target: T2, Mouse PD-L1 ECD His (mouse, UniProt Q9EP73 19-239); assay: SPR 25C and 37C
T2 construct: also called mouse PD-L1 (his-tagged)

[3] = molecular target: T1, Human PD-L1 His (human PD-L1 ECD with …); assay: SPR 25C, antibody captured, PD-L1 analyte; remark: listed apart in the source
Description: (§1) Label-free surface plasmon resonance (SPR) analysis was carried out on the ProteOn XPR36 (BioRad) array SPR machine. An anti-human IgG capture surface was created on a GLC biosensor chip using a combination of anti-human Fc antibodies (Jackson Labs 09-005-008,109-006-008 and 309-006-008) by amine coupling. […] The data was analysed using the 1:1 model inherent to the ProteOn XPR36 analysis software.

[4] = molecular target: T3, Cyno PD-L1 FLAG (cynomolgus PD-L1 ECD with FLAG tag) (cynomolgus monkey); assay: SPR 25C, antibody captured, PD-L1 analyte
T3 construct: also called cynomolgus monkey PD-L1-FLAG
Description: as §1

[5] = molecular target: T4, Human PD-L1 expressed on cells (human, UniProt Q9NZQ7 19-290); assay: cell-based or functional assay
[6] = molecular target: T4, Human PD-L1 expressed on cells; assay: cell-based or functional assay; remark: listed apart in the source
[7] = molecular target: T4, Human PD-L1 expressed on cells; assay: flow cytometry on CHO hPD-L1 cells, competitor biotin-CD80-Fc, n = 1
Description: (§2) 150 μL FACS buffer is added and cells washed as described above. […] Cells are incubated at 4° C. for 60 minutes. Cells are washed twice with 150 μL FACS buffer, centrifuging at 300 g for 3 minutes after each wash step and aspirating supernatant. Cells are fixed, washed and resuspended for analysis as above. APC signal intensity (geometric mean) is measured by flow cytometry using a Beckman Coulter CYTOFLEX instrument. Data is plotted as percentage of receptor binding.
(§3) All other steps are performed as per plate 2.

[8] = molecular target: T1, Human PD-L1 His (human PD-L1 ECD with …); assay: ELISA, biotin-PD-L1 to plate-bound PD-1, antibody titrated
Description: (§4) Excess protein was removed by washing with PBS-Tween (0.1% v/v) and the wells were blocked with 1% w/v bovine serum albumin (BSA, Sigma) in PBS for 1 hour at room temperature, after which plates were washed with PBS-Tween as above. 60 μL of a titration (three-fold serial dilution) of antibody was added to a 96-well, non-binding plate diluted in ELISA assay buffer (PBS +0.1% BSA). […] The plate was incubated for 30 minutes before transferring 50 μL to the coated plates. The coated plates were incubated for 1 hour at room temperature. Excess protein was removed by washing with PBS-Tween (0.1% v/v). PD-L1 binding was detected using streptavidin labelled europium (Perkin Elmer) diluted 1/1000 in DELFIA assay buffer (Perkin Elmer). The plates were washed with TBS (Tris buffered saline)-Tween (0.1% v/v) and 50 μL/well of DELFIA Enhancement solution (Perkin Elmer) was added to the plate. Time-resolved fluorescence was measured at 615 nm on an Envision plate reader (PerkinElmer). Percentage specific binding was calculated as defined in Equation 3. IC50 values were determined using GraphPad Prism software by curve fitting using a four-parameter logistic equation (Equation 4). Values for KM121 antibodies are a mean of three independent experiments. Values for KM122 are from a single experiment.

[9] = molecular target: T1, Human PD-L1 His (human PD-L1 ECD with …); assay: ELISA, biotin-PD-L1 to plate-bound CD80, antibody titrated
Description: as §4

[10] = molecular target: T4, Human PD-L1 expressed on cells; assay: flow cytometry on CHO hPD-L1 cells, competitor biotin-PD-1-Fc, n = 1
Description: as §2

[11] = molecular target: T4, Human PD-L1 expressed on cells; assay: cell-based or functional assay; remark: listed apart in the source
[12] = molecular target: T4, Human PD-L1 expressed on cells; assay: flow cytometry on CHO hPD-L1 cells, competitor biotin-PD-1-Fc, n = 2
Description: as §2

[13] = molecular target: T4, Human PD-L1 expressed on cells; assay: flow cytometry on CHO hPD-L1 cells, competitor biotin-CD80-Fc, n = 2
Description: as §2, §3

[14] = molecular target: T1, Human PD-L1 His (human PD-L1 ECD with …); assay: SPR 37C, antibody captured, PD-L1 analyte
[15] = molecular target: T3, Cyno PD-L1 FLAG (cynomolgus PD-L1 ECD …); assay: SPR 37C, antibody captured, PD-L1 analyte

T4 sequence (Q9NZQ7 19-290 limits assumed): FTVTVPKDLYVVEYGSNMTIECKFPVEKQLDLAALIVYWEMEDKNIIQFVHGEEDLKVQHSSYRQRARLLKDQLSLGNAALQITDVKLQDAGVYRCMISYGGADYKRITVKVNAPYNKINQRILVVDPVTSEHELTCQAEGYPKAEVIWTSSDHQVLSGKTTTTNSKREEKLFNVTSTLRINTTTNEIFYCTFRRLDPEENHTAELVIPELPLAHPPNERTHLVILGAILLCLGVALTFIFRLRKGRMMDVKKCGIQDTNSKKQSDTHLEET
T1 sequence (Q9NZQ7 19-238 limits assumed): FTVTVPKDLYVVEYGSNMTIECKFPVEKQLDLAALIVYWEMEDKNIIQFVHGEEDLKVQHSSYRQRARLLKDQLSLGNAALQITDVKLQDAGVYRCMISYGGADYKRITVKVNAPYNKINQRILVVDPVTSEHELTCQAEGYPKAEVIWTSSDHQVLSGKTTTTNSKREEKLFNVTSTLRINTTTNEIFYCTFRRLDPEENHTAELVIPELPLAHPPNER
T3 sequence (chain, as listed by the source limits assumed): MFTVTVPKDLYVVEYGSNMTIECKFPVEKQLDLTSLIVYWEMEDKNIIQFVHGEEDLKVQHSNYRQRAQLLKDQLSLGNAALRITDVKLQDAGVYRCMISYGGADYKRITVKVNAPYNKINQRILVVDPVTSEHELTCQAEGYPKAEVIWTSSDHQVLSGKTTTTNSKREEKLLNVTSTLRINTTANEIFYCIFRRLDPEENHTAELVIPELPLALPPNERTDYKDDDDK
T2 sequence (Q9EP73 other isoform, or with tags, fused parts or gaps): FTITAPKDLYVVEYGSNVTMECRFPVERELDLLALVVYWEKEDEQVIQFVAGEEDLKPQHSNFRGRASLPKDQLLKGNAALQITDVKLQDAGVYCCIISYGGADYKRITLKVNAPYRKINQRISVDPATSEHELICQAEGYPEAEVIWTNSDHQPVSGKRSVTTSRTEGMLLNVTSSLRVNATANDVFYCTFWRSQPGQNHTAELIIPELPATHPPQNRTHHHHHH

B1: 1D05 V to A change in VH (Seq ID No: 47), IgG1 disabled (LAGA), with 1D05 kappa V to A change (Seq ID No: 50) (antibody, V domains shown)
VH: EVQLVESGGGLVQPGRSLRLSCAASGFTFDDYAMHWVRQAPGKGLEWVSGISWIRTGIGYADSVKGRFTIFRDNAKNSLYLQMNSLRAEDTALYYCAKDMKGSGTYGGWFDTWGQGTLVTVSS
VL: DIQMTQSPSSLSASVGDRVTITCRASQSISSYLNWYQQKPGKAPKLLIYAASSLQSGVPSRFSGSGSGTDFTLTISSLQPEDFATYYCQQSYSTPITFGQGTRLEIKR
notes: See note of m58
[1]
  Kd: 2.8 nM

B2: 1D05 F to S change in VH (Seq ID No: 48), IgG1 disabled (LAGA), with 1D05 kappa V to A change (Seq ID No: 50) (antibody, V domains shown)
VH: B1 VH with A40V, F71S
VL: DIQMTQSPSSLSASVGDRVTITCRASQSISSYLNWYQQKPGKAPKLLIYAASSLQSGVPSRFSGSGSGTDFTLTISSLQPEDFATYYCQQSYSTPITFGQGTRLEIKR
notes: See note of m59
[1]
  Kd: 1.94 nM

B3: 1D05 V to A change in VH (Seq ID No: 47), IgG1 disabled (LAGA), with 1D05 kappa (antibody, V domains shown)
VH: B1 VH
VL: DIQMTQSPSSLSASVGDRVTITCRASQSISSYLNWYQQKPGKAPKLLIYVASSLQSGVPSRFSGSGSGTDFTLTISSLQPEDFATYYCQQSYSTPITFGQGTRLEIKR
notes: Listing entry 47 is a whole heavy chain said to carry the IgG1 disabled (LAGA) constant region; also called 1D05 HC mutant 1
[1]
  Kd: 0.33 nM

B4: 1D05 F to S change in VH (Seq ID No: 48), IgG1 disabled (LAGA), with 1D05 kappa (antibody, V domains shown)
VH: B1 VH with A40V, F71S
VL: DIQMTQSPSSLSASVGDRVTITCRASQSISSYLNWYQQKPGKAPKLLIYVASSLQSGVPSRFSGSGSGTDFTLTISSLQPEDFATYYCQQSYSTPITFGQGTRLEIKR
notes: Entry 48 is a whole heavy chain; also called 1D05 HC mutant 2
[1]
  Kd: 0.23 nM

B5: 1D05 - IgG1 disabled (LAGA) with 1D05 kappa, V to A change (Seq ID No: 50) (antibody, V domains shown)
VH: B1 VH with A40V
VL: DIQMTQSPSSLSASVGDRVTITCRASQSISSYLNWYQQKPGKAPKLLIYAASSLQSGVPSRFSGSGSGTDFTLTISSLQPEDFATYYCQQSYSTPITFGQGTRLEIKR
notes: also called 1D05 LC mutant 1
[1]
  Kd: 2.66 nM

B6: 1D05 V to A & F to S change in VH (Seq ID No: 342), IgG1 disabled (LAGA), with 1D05 kappa V to A change (Seq ID No: 50) (antibody, V domains shown)
VH: B1 VH with F71S
VL: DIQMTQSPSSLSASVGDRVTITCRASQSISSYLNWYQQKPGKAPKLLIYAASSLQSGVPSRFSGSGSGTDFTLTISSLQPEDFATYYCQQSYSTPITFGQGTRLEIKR
notes: See note of m60
[1]
  Kd: 1.94 nM

B7: 416E01 (human IgG1) (antibody, V domains shown)
VH: EVQLAESGGGLVQPGGSLRLSCAASGFTFSNYAMSWVRQTPGKGLEWVSAISFSGGTTYYADSVKGRFTISRDNSKNTLYLHMNSLRADDTAVYYCAKDEAPAGATFFDSWGQGTLVTVSS
VL: DIQMTQSPSSVSASVGDRVTITCRASQGIRRWLAWYQQKPGKAPKLLISGASSLQSGVPSRFSGSGSGTDFTLIITSLQPEDFATYYCQQANSFPITFGQGTRLEIKR
[2]
  binding result: no binding
[3]
  Kd: 0.193 nM
[4]
  Kd: 0.411 nM
[5]
  EC50, IL-2 induction, murine T cell hybridoma assay, n = 1: 0.19 nM
  EC50, IL-2 induction, murine T cell hybridoma assay, n = 2: 0.15 nM
  EC50, IL-2 induction, murine T cell hybridoma assay, n = 3: 0.14 nM
[6]
  mean EC50, IFNγ induction, monocyte-T cell co-culture: 0.064 nM
  mean fold increase IFNγ, monocyte-T cell co-culture: 2.23 fold
[7]
  IC50: 1.04 nM
[8]
  IC50: 1.72 nM
[9]
  IC50: 0.98 nM
[10]
  IC50: 0.81 nM
[11]
  EC50, ADCC reporter assay, n = 1: 0.08 nM
  EC50, ADCC reporter assay, n = 2: 0.0106 nM
  EC50, ADCC reporter assay, n = 3: 0.0229 nM
  max fold induction, ADCC reporter assay, n = 1: 32.1 fold
  max fold induction, ADCC reporter assay, n = 2: 33.8 fold
  max fold induction, ADCC reporter assay, n = 3: 60.2 fold
[12]
  IC50: 0.89 nM
[13]
  IC50: 0.89 nM
[14]
  Kd: 0.511 nM
[15]
  Kd: 0.998 nM

B8: 389A03 (antibody, human IgG1, kappa, V domains shown)
VH: QLQESGPGLVKPSETLSLTCTVSGGSISSSSYYCGWIRQPPGKGLDWIGSIYSTGYTYYNPSLKSRVTISIDTSKNQFSCLILTSVTAADTAVYYCAISTAAGPEYFHRWGQGTLVTVSS
VL: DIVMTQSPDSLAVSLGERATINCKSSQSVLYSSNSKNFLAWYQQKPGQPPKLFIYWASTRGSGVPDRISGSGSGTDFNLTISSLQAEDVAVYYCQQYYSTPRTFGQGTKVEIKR
[9]
  IC50: 13.2 nM
